The source of these data is patent CN113372440A.

Assay [1] addresses gH/gL glycoprotein on EBV virions produced by AKATA cells (Epstein-Barr virus) (UniProt P03231). In words: cell-based or functional assay.
For assay [2], the target named is gLgH蛋白 (recombinant single-chain EBV M81 gL ectodomain - linker - gH ectodomain - 6xHis) (Epstein-Barr virus (M81 strain, KF373730.1)). In words: ELISA, gLgH coated at 2 μg/mL, antibody titrated from 1 μg/mL (Fig. 2). (In an ELISA, binding on a coated surface is turned into a signal by an enzyme label.)

For orientation: EC50 means the concentration needed to bring the measured effect to its halfway point. AMMO1 (针对EB病毒gLgH糖蛋白的人源中和单抗) (antibody): the IC50 in the epithelial cell infection model (HNE1 cells, GFP-EBV, inhibition of GFP-positive cells) in assay [1] is 0.0828 µg/mL. Moreover, the EC50 in assay [2] stood at 0.0255 µg/mL.
